Experimental data: patent US11078465B2, “Alcohol dehydrogenase mutant and application thereof in synthesis of diaryl chiral alcohols” (Jiangnan University, priority 2018, dated 2021)
Entries after “also recorded” stand apart in the source; their conditions may differ.

B1: E214N/S237C: asparagine for glutamate at position 214 and cysteine for serine at position 237 of SEQ ID No. 2 (protein)
chain: MSVLISGASGYIAKHIVRVLLEQNYKVIGTVRSQDKADKLLKQYNNPNLSYEIVPEIANLDAFDDIFKKHGKEIKYVIHAASPVNFGAKDLEKDLVIPAINGTKNMFEAIKKYAPDTVERVVMTASYASIMTPHRQNDPTLTLDEETWNPVTEENAYENVFTAYCASKTFAEKEAWKFVKENSDAVKFKLTTIHPSFVFGPQNFDEDVTKKLNNTCEIINGLLHAPFDTKVEKTHFCQFIDVRDVAKTHVLGFQKDELINQRLLLCNGAFSQQDIVNVFNEDFPELKGQFPPEDKDTDLNKGVTGCKIDNEKTKKLLAFEFTPFHKTIHDTVYQILHKEGRV
modifications: Protein translated from synthetic DNA
B2: E214V/S237A: valine for glutamate at position 214 and alanine for serine at position 237 of SEQ ID No. 2 (protein)
chain: MSVLISGASGYIAKHIVRVLLEQNYKVIGTVRSQDKADKLLKQYNNPNLSYEIVPEIANLDAFDDIFKKHGKEIKYVIHAASPVNFGAKDLEKDLVIPAINGTKNMFEAIKKYAPDTVERVVMTASYASIMTPHRQNDPTLTLDEETWNPVTEENAYENVFTAYCASKTFAEKEAWKFVKENSDAVKFKLTTIHPSFVFGPQNFDEDVTKKLNVTCEIINGLLHAPFDTKVEKTHFAQFIDVRDVAKTHVLGFQKDELINQRLLLCNGAFSQQDIVNVFNEDFPELKGQFPPEDKDTDLNKGVTGCKIDNEKTKKLLAFEFTPFHKTIHDTVYQILHKEGRV
modifications: Protein translated from synthetic DNA
B3: E214R/S237C: arginine for glutamate at position 214 and cysteine for serine at position 237 of SEQ ID No. 2 (protein)
chain: MSVLISGASGYIAKHIVRVLLEQNYKVIGTVRSQDKADKLLKQYNNPNLSYEIVPEIANLDAFDDIFKKHGKEIKYVIHAASPVNFGAKDLEKDLVIPAINGTKNMFEAIKKYAPDTVERVVMTASYASIMTPHRQNDPTLTLDEETWNPVTEENAYENVFTAYCASKTFAEKEAWKFVKENSDAVKFKLTTIHPSFVFGPQNFDEDVTKKLNRTCEIINGLLHAPFDTKVEKTHFCQFIDVRDVAKTHVLGFQKDELINQRLLLCNGAFSQQDIVNVFNEDFPELKGQFPPEDKDTDLNKGVTGCKIDNEKTKKLLAFEFTPFHKTIHDTVYQILHKEGRV
modifications: Protein translated from synthetic DNA

Assays:
Type in all cases: biochemical
[1] = Kinetic analysis of alcohol dehydrogenase and mutants (NADPH oxidation, 340 nm, double reciprocal curve); details: substrate CPMK
Description: (§1) Adopting a total reaction system of 200 μL, including: 1.0 mM NADPH, 1.0 mM substrate CPMK and sodium phosphate buffer (PBS, 100 mM, pH 7.0), fully and evenly mixing, maintaining at 30° C. for 2 min, adding an appropriate amount of enzyme solution, and detecting the change in light absorption at 340 nm.
(§2) The enzyme activity was calculated by the following formula: Enzyme activity (U)=EW×V×10^3/(6220×I);
(§3) in the formula, EW is the change in absorbance at 340 nm in 1 min; V is the volume of a reaction solution in mL; 6220 is the molar extinction coefficient of NADPH in L/mol·cm); and 1 is the optical path distance in cm. One activity unit (U) corresponds to the amount of enzyme required to catalyze the oxidation of 1 μmol NADPH per minute under the above conditions.
A column used for purification was a nickel affinity column HisTrap FF crude, and purification was achieved through affinity chromatography using a histidine tag on recombinant protein. The nickel column was equilibrated with a solution A first, a crude enzyme solution was loaded, a penetrating peak was further eluted off using the solution A, and after equilibrium, a solution B (20 mM sodium phosphate, 500 mM NaCl, and 1000 mM imidazole, pH 7.4) was used for gradient elution to elute off the recombinant protein bound to the nickel column, so as to obtain the recombinant alcohol dehydrogenase mutant. The purified protein was subjected to activity measurement (CPMK as substrate, and NADPH as coenzyme) and SDS-PAGE analysis. […] The purified alcohol dehydrogenase protein was then replaced into a Tris-HCl (100 mM, pH 7.0) buffer using a Hi Trap Desalting column (GE Healthcare).
The activity of KpADH at different substrate concentrations and coenzyme concentrations was determined, and a double reciprocal curve was made based on the reciprocal of activity and substrate concentration to calculate kinetic parameters.

[2] = Stereoselectivity (ee) of CPMK reduction, chiral liquid chromatography; details: for e.e.: product configuration in brackets
Description: (§4) In an embodiment of the present disclosure, a chromatographic analysis method is as follows: 100 μL of reactant liquid is taken, 500 μL of ethyl acetate is added, shaking is performed for 1-2 min, centrifugation is performed at 12,000 rpm for 2-5 min, supernatant liquid is taken into a centrifuge tube, after an organic phase naturally volatilizes completely, 500 μL of chromatographically pure ethanol is added, and chiral liquid chromatography and gas chromatography are performed to analyze the transformation rate and the ee value.
(§5) Method for determining optical purity ee:
(§6) As: molar concentration of (S)-CPMA obtained by liquid chromatography; and AR: molar concentration of (R)-CPMA obtained by liquid chromatography.

[3] = Substrate specificity, specific activity
Description: as §1, §2, §3
(§7) The reduction on prochiral carbonyl compounds by the alcohol dehydrogenase mutants obtained in Example 3 was studied. The pro-chiral carbonyl compounds include (4-chlorophenyl)-(pyridin-2-yl)-methanone (CPMK), phenyl-(pyridin-2-yl)-methanone, (4-chlorophenyl)-(phenyl)-methanone, (4-bromophenyl)(phenyl)methanone, (4-fluorophenyl)(phenyl)methanone, (4-methoxyphenyl)-(phenyl)-methanone, (4-nitrophenyl)(phenyl)methanone, 1-(pyridin-2-yl)ethanone, acetophenone, 4′-Chloroacetophenone, 4-chlorophenacyl chloride, ethyl 2-oxo-4-phenylbutanoate (OPBE), ethyl 4-chloro-3-oxobutanoate, and methyl 2-oxo-2-phenylacetate.

[4] = Stereoselectivity on different substrates; details: for Stereoselectivity (ee): configuration in brackets
Description: as §4, §5, §6, §7
All the products above were recrystallized from ethyl acetate and gave more than 99.9% optical purity.

[5] = Stereoselectivity on different substrates; details: configuration in brackets
Description: as §4, §5, §6, §7

[6] = substrate [drawing 6], 4-chlorophenacyl chloride
[7] = substrate [drawing 9], ethyl 4-chloro-3-oxobutanoate
[8] = substrate [drawing 10], acetophenone
[9] = substrate [drawing 11], 4-chloroacetophenone
[10] = substrate [drawing 12], 4-chlorobenzoyl chloride
[11] = substrate [drawing 16], (4-bromophenyl)-(phenyl)-methanone
[12] = substrate [drawing 17], p-nitrobenzophenone
[13] = substrate [drawing 14], likely CPMK (values partly match Table 4)

| Molecule | Kcat [1] [s⁻¹] | Km [1] [µM] | Vmax [1] [µM/min/mg] | e.e. [2] | specific activity ([3]; substrate [drawing 1]) [U/mg] | specific activity ([3]; substrate [drawing 2]) [U/mg] | specific activity ([3]; substrate [drawing 3]) [U/mg] | specific activity ([3]; substrate [drawing 4]) [U/mg] | specific activity ([3]; substrate [drawing 5]) [U/mg] | specific activity [3, 6] [U/mg] | specific activity ([3]; substrate [drawing 7]) [U/mg] | specific activity ([3]; substrate [drawing 8]) [U/mg] | specific activity [3, 7] [U/mg] | Stereoselectivity (ee) [4, 8] | Stereoselectivity (ee) [4, 9] | Stereoselectivity (ee) [4, 10] | Stereoselectivity (ee) [4, 11] | Stereoselectivity (ee) [4, 12] | Stereoselectivity (ee) ([5]; substrate [drawing 13]) | Stereoselectivity (ee) [5, 13] | further results |
| --- | --- | --- | --- | --- | --- | --- | --- | --- | --- | --- | --- | --- | --- | --- | --- | --- | --- | --- | --- | --- | --- |
| B1 | 5.87 ± 0.13 | 220 ± 20 | 8.80 ± 0.20 | 43.6 (S) | 0.84 | 0.52 | 0.32 | 7.50 | 7.48 | 10.02 | 17.10 | 13.21 | 5.80 | 99.0 (R) | 97.4 (R) | 93.6 (R) | 91.9 (R) | 90.7 (R) | 51.5 (R) | 57.1 (S) | configuration of product / stereoselectivity in words [2]: inversion from the R configuration to the S configuration; also recorded: (S)-CPMA; ee ([4]; substrate p-nitrobenzophenone, (S)): 99.1%; Stereoselectivity (ee) ([5]; substrate [drawing 15]): 57.1 (R); Stereoselectivity (ee) ([5]; substrate [drawing 18]): 99.1 (S) |
| B2 | 8.46 ± 0.27 | 320 ± 30 | 12.69 ± 0.40 | 98.5 (R) | 0.16 | 0.12 | 2.37 | 2.86 | 9.21 | 27.07 | 24.47 | 27.64 | 8.03 | 17.1 (R) | 97.8 (R) | 75.2 (R) | 88.1 (S) | 85.3 (S) | 36.6 (R) | 98.7 (R) | Stereoselectivity (ee) ([5]; substrate [drawing 15]): 54.2 (S); Stereoselectivity (ee) ([5]; substrate [drawing 18]): 81.8 (S) |
| B3 | 10.4 ± 0.11 | 880 ± 20 | 15.6 ± 0.16 | 48.3 (S) | 0.26 | 0.18 | 0.36 | 4.21 | 1.96 | 6.69 | 22.48 | 30.69 | 1.88 | 98.3 (R) | 97.2 (R) | 92.9 (R) | 89.9 (R) | 88.0 (R) | 50.1 (R) | 48.3 (S) | configuration of product / stereoselectivity in words [2]: inversion from the R configuration to the S configuration; also recorded: (S)-CPMA; Stereoselectivity (ee) ([5]; substrate [drawing 15]): 49.8 (R); Stereoselectivity (ee) ([5]; substrate [drawing 18]): 91.9 (R) |
